According to patent publication US20260035450A1 (Novo Nordisk, published 2026):

T1: recombinant human ANGPTL3 (rhANGPTL3) (SEQ ID NO:1) (human, UniProt Q9Y5C1 17-460)
T1 sequence: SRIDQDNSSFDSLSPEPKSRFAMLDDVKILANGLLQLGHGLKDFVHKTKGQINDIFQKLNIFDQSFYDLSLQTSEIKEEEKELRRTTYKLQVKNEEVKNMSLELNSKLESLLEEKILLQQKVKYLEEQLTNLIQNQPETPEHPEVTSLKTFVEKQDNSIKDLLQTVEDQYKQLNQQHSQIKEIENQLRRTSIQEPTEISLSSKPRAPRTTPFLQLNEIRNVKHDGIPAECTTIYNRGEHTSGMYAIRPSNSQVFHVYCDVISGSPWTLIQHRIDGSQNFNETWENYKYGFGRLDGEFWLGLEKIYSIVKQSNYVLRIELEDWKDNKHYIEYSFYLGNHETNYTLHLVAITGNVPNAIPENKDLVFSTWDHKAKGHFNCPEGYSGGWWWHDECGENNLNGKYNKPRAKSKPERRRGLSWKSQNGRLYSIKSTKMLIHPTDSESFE


The binders below were run against T1, recombinant human ANGPTL3 (rhANGPTL3) … (assay: cell-based or functional assay).

Average relative IC50 (inhibition of rhANGPTL3-mediated LPL inhibition) | Binder
3.7 relative to evinacumab SIA | tmAb1 (antibody, human IgG1, kappa) heavy: EVQLLESGGGLVQPGGSLRLSCAASGFNFRSYWMTWVRQAPGKGLEWVSSISSHSTYIYYADSVKGRFTISRDNSKNTLYLQMNSLRAEDTATYYCAREGWYDNWFDPWGQGTLVTVSSASTKGPSVFPLAPSSKSTSGGTAALGCLVKDYFPEPVTVSWNSGALTSGVHTFPAVLQSSGLYSLSSVVTVPSSSLGTQTYICNVNHKPSNTKVDKKVEPKSCDKTHTCPPCPAPEYLGGDSVFLFPPKPKDVLYITREPEVTCVVIDVSHEDPEVKFNWYVDGVEVHNAKTKPREEQYNSTYRVVSVLPVLHRDWLNGKEYKCKVSNKALPKPIEKTISKAKGQRREPQVYTLPPSREEMTKNQVSLWCLVKGFYPSDIAVEWESNGQPENNYKTTPPVLDSDGSFFLYSKLTVDKSRWQQGNVFSCSVMHEALHNHYTQKSLSLSP DKTHTCPPCPAPEYLGGDSVFLFPPKPKDVLYITREPEVTCVVIDVSHEDPEVKFNWYVDGVEVHNAKTKPREEQYNSTYRVVSVLPVLHRDWLNGKEYKCKVSNKALPKPIEKTISKAKGQRREPQVYTLPPSREEMTKNQVSLSCAVKGFYPSDIAVEWESNGQPENNYKTTPPVLDSDGSFFLVSKLTVDKSRWQQGNVFSCSVMHEALHNHYTQKSLSLSP light: EIVLTQSPGTLSLSPGERATLSCRASQNIRSPYLAWYQQKPGQAPRLLIYGVSSRAAGIPDRFSGSGSGTDFTLTISRLEPEDFAVYYCQQYDDHPYTFGQGTKLEIKRTVAAPSVFIFPPSDEQLKSGTASVVCLLNNFYPREAKVQWKVDNALQSGNSQESVTEQDSKDSTYSLSSTLTLSKADYEKHKVYACEVTHQGLSSPVTKSFNRGEC
1.3 relative to evinacumab SIA | tmAb4 (antibody, human IgG1, kappa) heavy: EVQLLESGGGLVQPGGSLRLSCAASGFNFESYWMTWVRQAPGKGLEWVSSISSHSTYIYYADSVKGRFTISRDNSKNTLYLQMNSLRAEDTATYYCAREGWYDNWNDPWGQGTLVTVSSASTKGPSVFPLAPSSKSTSGGTAALGCLVKDYFPEPVTVSWNSGALTSGVHTFPAVLQSSGLYSLSSVVTVPSSSLGTQTYICNVNHKPSNTKVDKKVEPKSCDKTHTCPPCPAPEYLGGDSVFLFPPKPKDVLYITREPEVTCVVIDVSHEDPEVKFNWYVDGVEVHNAKTKPREEQYNSTYRVVSVLPVLHRDWLNGKEYKCKVSNKALPKPIEKTISKAKGQRREPQVYTLPPSREEMTKNQVSLWCLVKGFYPSDIAVEWESNGQPENNYKTTPPVLDSDGSFFLYSKLTVDKSRWQQGNVFSCSVMHEALHNHYTQKSLSLSP DKTHTCPPCPAPEYLGGDSVFLFPPKPKDVLYITREPEVTCVVIDVSHEDPEVKFNWYVDGVEVHNAKTKPREEQYNSTYRVVSVLPVLHRDWLNGKEYKCKVSNKALPKPIEKTISKAKGQRREPQVYTLPPSREEMTKNQVSLSCAVKGFYPSDIAVEWESNGQPENNYKTTPPVLDSDGSFFLVSKLTVDKSRWQQGNVFSCSVMHEALHNHYTQKSLSLSP light: EIVLTQSPGTLSLSPGERATLSCRASQNIRSPYLAWYQQKPGQAPRLLIYGVSSRAAGIPDRFSGSGSGTDFTLTISRLEPEDFAVYYCQQYDDHPYTFGQGTKLEIKRTVAAPSVFIFPPSDEQLKSGTASVVCLLNNFYPREAKVQWKVDNALQSGNSQESVTEQDSKDSTYSLSSTLTLSKADYEKHKVYACEVTHQGLSSPVTKSFNRGEC
2.5 relative to evinacumab SIA | tmAb2 (antibody, human IgG1, kappa) heavy: EVQLLESGGGLVQPGGSLRLSCAASDFNFRSYWMTWVRQAPGKGLEWVSSISSHSTYIYYADSVKGRFTISRDNSKNTLYLQMNSLRAEDTATYYCAREGWYDNWFDPWGQGTLVTVSSASTKGPSVFPLAPSSKSTSGGTAALGCLVKDYFPEPVTVSWNSGALTSGVHTFPAVLQSSGLYSLSSVVTVPSSSLGTQTYICNVNHKPSNTKVDKKVEPKSCDKTHTCPPCPAPEYLGGDSVFLFPPKPKDVLYITREPEVTCVVIDVSHEDPEVKFNWYVDGVEVHNAKTKPREEQYNSTYRVVSVLPVLHRDWLNGKEYKCKVSNKALPKPIEKTISKAKGQRREPQVYTLPPSREEMTKNQVSLWCLVKGFYPSDIAVEWESNGQPENNYKTTPPVLDSDGSFFLYSKLTVDKSRWQQGNVFSCSVMHEALHNHYTQKSLSLSP DKTHTCPPCPAPEYLGGDSVFLFPPKPKDVLYITREPEVTCVVIDVSHEDPEVKFNWYVDGVEVHNAKTKPREEQYNSTYRVVSVLPVLHRDWLNGKEYKCKVSNKALPKPIEKTISKAKGQRREPQVYTLPPSREEMTKNQVSLSCAVKGFYPSDIAVEWESNGQPENNYKTTPPVLDSDGSFFLVSKLTVDKSRWQQGNVFSCSVMHEALHNHYTQKSLSLSP light: EIVLTQSPGTLSLSPGERATLSCRASQNIRSPYLAWYQQKPGQAPRLLIYGVSSRAAGIPDRFSGSGSGTDFTLTISRLEPEDFAVYYCQQYDDHPYTFGQGTKLEIKRTVAAPSVFIFPPSDEQLKSGTASVVCLLNNFYPREAKVQWKVDNALQSGNSQESVTEQDSKDSTYSLSSTLTLSKADYEKHKVYACEVTHQGLSSPVTKSFNRGEC
4.8 relative to evinacumab SIA | tmAb3 (antibody, human IgG1, kappa) heavy: EVQLLESGGGLVQPGGSLRLSCAASGFNFESYWMTWVRQAPGKGLEWVSSISSHSTYIYYADSVKGRFTISRDNSKNTLYLQMNSLRAEDTATYYCAREGWYDNWFDPWGQGTLVTVSSASTKGPSVFPLAPSSKSTSGGTAALGCLVKDYFPEPVTVSWNSGALTSGVHTFPAVLQSSGLYSLSSVVTVPSSSLGTQTYICNVNHKPSNTKVDKKVEPKSCDKTHTCPPCPAPEYLGGDSVFLFPPKPKDVLYITREPEVTCVVIDVSHEDPEVKFNWYVDGVEVHNAKTKPREEQYNSTYRVVSVLPVLHRDWLNGKEYKCKVSNKALPKPIEKTISKAKGQRREPQVYTLPPSREEMTKNQVSLWCLVKGFYPSDIAVEWESNGQPENNYKTTPPVLDSDGSFFLYSKLTVDKSRWQQGNVFSCSVMHEALHNHYTQKSLSLSP DKTHTCPPCPAPEYLGGDSVFLFPPKPKDVLYITREPEVTCVVIDVSHEDPEVKFNWYVDGVEVHNAKTKPREEQYNSTYRVVSVLPVLHRDWLNGKEYKCKVSNKALPKPIEKTISKAKGQRREPQVYTLPPSREEMTKNQVSLSCAVKGFYPSDIAVEWESNGQPENNYKTTPPVLDSDGSFFLVSKLTVDKSRWQQGNVFSCSVMHEALHNHYTQKSLSLSP light: EIVLTQSPGTLSLSPGERATLSCRASQNIRSPYLAWYQQKPGQAPRLLIYGVSSRAAGIPDRFSGSGSGTDFTLTISRLEPEDFAVYYCQQYDDHPYTFGQGTKLEIKRTVAAPSVFIFPPSDEQLKSGTASVVCLLNNFYPREAKVQWKVDNALQSGNSQESVTEQDSKDSTYSLSSTLTLSKADYEKHKVYACEVTHQGLSSPVTKSFNRGEC
